Sequences and labels used below:
T1: FcRL4, overexpressed on 3T3 cells (UniProt Q96PJ5 20-515, limits assumed)
T1 construct: whole, on cells
T1 sequence (looked up): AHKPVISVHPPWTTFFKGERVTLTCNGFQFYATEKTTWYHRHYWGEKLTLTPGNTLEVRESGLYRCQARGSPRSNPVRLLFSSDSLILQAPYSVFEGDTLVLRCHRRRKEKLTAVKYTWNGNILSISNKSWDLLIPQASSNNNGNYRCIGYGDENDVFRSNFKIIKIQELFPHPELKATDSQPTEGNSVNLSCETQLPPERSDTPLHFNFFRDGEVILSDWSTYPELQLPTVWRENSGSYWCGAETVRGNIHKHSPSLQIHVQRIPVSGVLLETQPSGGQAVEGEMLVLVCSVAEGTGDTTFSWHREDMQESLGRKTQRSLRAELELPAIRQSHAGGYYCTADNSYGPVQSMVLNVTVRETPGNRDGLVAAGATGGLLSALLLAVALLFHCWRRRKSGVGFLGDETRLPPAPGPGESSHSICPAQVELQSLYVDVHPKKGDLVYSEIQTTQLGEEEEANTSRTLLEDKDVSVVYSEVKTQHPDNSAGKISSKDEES

T2: FcRL3, overexpressed on 3T3 cells (UniProt Q96P31 18-734, limits assumed)
T2 construct: whole, on cells
T2 sequence (looked up): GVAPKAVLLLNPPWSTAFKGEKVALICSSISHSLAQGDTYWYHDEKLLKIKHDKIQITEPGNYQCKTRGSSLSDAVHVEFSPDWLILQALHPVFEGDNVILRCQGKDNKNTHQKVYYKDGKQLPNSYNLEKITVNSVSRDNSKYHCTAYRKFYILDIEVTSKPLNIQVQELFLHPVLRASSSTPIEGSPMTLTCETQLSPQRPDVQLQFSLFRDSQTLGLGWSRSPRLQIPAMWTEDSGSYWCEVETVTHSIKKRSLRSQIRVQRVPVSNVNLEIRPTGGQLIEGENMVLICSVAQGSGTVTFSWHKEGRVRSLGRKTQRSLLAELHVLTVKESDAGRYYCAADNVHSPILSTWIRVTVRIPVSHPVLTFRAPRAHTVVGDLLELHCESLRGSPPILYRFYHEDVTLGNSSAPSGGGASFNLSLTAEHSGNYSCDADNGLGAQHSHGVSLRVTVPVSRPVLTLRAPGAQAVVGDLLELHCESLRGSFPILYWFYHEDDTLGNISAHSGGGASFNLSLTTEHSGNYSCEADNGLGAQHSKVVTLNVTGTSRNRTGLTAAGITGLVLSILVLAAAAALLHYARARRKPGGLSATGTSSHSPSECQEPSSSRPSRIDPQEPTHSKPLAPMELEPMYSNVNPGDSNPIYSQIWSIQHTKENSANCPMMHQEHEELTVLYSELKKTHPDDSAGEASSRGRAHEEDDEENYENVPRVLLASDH

T3: FcRL6, overexpressed on 3T3 cells (UniProt Q6DN72 20-434, limits assumed)
T3 construct: whole, on cells
T3 sequence (looked up): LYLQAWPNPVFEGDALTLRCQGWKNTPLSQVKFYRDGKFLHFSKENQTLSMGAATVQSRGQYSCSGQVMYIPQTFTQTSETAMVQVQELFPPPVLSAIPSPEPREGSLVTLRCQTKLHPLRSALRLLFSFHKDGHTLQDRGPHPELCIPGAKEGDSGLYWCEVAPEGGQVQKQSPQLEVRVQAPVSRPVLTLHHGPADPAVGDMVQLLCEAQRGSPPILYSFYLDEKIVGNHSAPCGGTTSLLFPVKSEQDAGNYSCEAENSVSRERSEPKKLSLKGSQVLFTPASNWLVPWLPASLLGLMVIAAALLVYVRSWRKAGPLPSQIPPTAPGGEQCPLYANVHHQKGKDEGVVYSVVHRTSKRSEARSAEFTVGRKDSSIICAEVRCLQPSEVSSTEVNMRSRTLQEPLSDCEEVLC

T4: FcRL2, overexpressed on 3T3 cells (UniProt Q96LA5 20-508, limits assumed)
T4 construct: whole, on cells
T4 sequence (looked up): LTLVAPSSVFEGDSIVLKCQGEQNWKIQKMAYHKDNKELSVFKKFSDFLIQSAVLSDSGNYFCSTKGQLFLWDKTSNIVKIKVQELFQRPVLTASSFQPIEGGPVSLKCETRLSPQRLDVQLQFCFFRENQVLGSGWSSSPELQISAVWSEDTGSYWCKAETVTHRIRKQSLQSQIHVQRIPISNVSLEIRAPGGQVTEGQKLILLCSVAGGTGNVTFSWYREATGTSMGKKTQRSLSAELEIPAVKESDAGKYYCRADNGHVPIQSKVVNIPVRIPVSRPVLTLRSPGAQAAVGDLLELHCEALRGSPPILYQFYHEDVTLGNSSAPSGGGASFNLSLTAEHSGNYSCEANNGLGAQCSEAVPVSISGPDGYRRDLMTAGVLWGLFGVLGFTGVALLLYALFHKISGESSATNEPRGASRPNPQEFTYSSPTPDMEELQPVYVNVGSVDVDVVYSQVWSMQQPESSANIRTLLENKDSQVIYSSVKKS

B1: ET200-116 (scFv)
scFv: QPVLTQPPSVSVSPGQTAAIPCSGDKLGDKFASWYQQKPGQSPVLVIYQDTKRPSGIPERFSGSNSGNTATLTISGTQAMDEADYYCQTWASGIVVFGGGTKLTVLGSRGGGGSGGGGSGGGGSLEMAQVQLQQSGPGLVKPSQTLSLTCAISGDSVSSNSAAWNWIRQSPSRGLEWLGRTYYRSKWYNDYAVSVKSRITINPDTSKNQFSLQLNSVTPEDTAVYYCARERSGWKGFDYWGQGTLVTVSSTSGQAGQHHHHHHGAYPYDVPDYAS
notes: screened as phage clone; entry is VL-linker-VH-His tag-HA tag
B2: ET200-112 (scFv)
scFv: QAVLTQPPSASGTPGQRVTISCSGSSSNIGSNTVNWYQQLPGTAPKLLMYSNDQRPSGVPDRFSGSKSGTSASLAISGLQSEDEADYYCAAWDDSLNGYVFAAGTQLTVLSSRGGGGSGGGGSGGGGSLEMAQVQLQQWGAGLLKPSETLSLTCAVYGGSFSGYYWSWIRQPPGKGLEWIGEINHSGSTNYNPSLKSRVTISVDTSKNQFSLKLSSVTAADTAVYYCAREGLDAFDIWGQGTMVTVSSTSGQAGQHHHHHHGAYPYDVPDYAS
notes: as for B1
B3: ET200-110 (scFv)
scFv: QSVLTQPPSASGTPGQRVTISCSGSSSNIGTNGVNWFQQFPGTAPKLLIYTNDQRPSGVPDRFSGSKSGTSASLAISGLQSADEADYYCAVWDHSLNGPVFGGGTKLTVLGSRGGGGSGGGGSGGGGSLEMAQVQLVQSGAEVKKPGSSVKVSCKASGGTFSSYAISWVRQAPGQGLEWMGGIIPIFGTANYAQKFQGRVTITADESTSTAYMELSSLRSEDTAVYYCARGAGFDAFDIWGQGTMVTVSSTSGQAGQHHHHHHGAYPYDVPDYAS
notes: as for B1
B4: ET200-113 (scFv)
scFv: QSVVTQPPSVSAAPGQKVTISCSGSSSNIGNNYVSWYQQLPGTAPKLLIYDNNKRPSGIPDRFSGSKSGTSATLGITGLQTGDEADYYCGTWDSSLSAAYVFGTGTKVTVLGSRGGGGSGGGGSGGGGSLEMAQVQLVQSGAEVKKPGASVKVSCKASGYSFTSYTISWVRQAPGQGLEWMGWVSTYNGLRNYAQNLQGRVTMTTDTLTTTAYMELRSLRSDDTAVYYCVREGSPDYGDFAAFDYWGQGTLVTVSSTSGQAGQHHHHHHGAYPYDVPDYAS
notes: as for B1
B5: ET200-115 (scFv)
scFv: QSVLTQPPSVSGAPGQRVTISCTGSSSNIGARYDVHWYQQLPGTAPRLLISANYDRPSGVPDRFSGSKSGTSASLAITGLQAEDEADYYCQSYDSSVSAWVFGGGTKVTVLGSRGGGGSGGGGSGGGGSLEMAEVQLVQSGAEVKEPGASVRISCQASGYNFISYYMHWVRQAPGQGLEWMGTINPGSGETDYSQKLQGRVTMTRDPSTGTFDMGLSSLTSGDTAVYYCATGLIRGASDAFNIWGRGTMVTVSSTSGQAGQHHHHHHGAYPYDVPDYAS
notes: as for B1

Chain of SLAMF9 protein (Q96A28 19-236 limits assumed): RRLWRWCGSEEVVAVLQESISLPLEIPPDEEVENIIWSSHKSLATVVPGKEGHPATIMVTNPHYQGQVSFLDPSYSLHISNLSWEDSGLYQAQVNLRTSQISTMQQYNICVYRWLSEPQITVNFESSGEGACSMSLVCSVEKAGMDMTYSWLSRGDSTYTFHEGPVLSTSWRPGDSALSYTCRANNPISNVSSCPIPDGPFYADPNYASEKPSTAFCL

One experiment deals with T1, FcRL4, overexpressed on 3T3 cells. Description: phage clone on 3T3-FcRL4 cells.
For the molecule B1, the binding result is on record as “no binding”.

As to B2, the binding result is given as “no binding”.

For the molecule B3, the binding result is “no binding”.

As to B4, the binding result is reported as “no binding”.

As to B5, the binding result is on record as “no binding”.

The target of a further experiment is T2, FcRL3, overexpressed on 3T3 cells. Put plainly: phage clone on 3T3-FcRL3 cells.
On to B1, for which the binding result was “no binding”.

With B2, the binding result is “no binding”.

In the case of B3, the binding result was “no binding”.

Consider B4, for which the binding result is recorded as “no binding”.

In the case of B5, the binding result is on record as “no binding”.

A further experiment addresses SLAMF9 protein (UniProt Q96A28 19-236, limits assumed). Put plainly: phage clone on SLAMF9 protein.
As to B1, the binding result is given as “no binding”.

Consider B2, for which the binding result is on record as “no binding”.

For B3, the binding result is “no binding”.

Take B4: the binding result was “no binding”.

B5: the binding result is on record as “no binding”.

For a further experiment, the target named is T3, FcRL6, overexpressed on 3T3 cells. Put plainly: phage clone on 3T3-FcRL6 cells.
In the case of B1, the binding result was “no binding”.

With B2, the binding result was “no binding”.

Take B3: the binding result was “no binding”.

As to B4, the binding result is given as “no binding”.

With B5, the binding result is “no binding”.

Another experiment deals with T4, FcRL2, overexpressed on 3T3 cells. Put plainly: phage clone on 3T3-FcRL2 cells.
With B1, the binding result is “no binding”.

Regarding B2, the binding result is listed as “no binding”.

With B3, the binding result was “no binding”.

For the molecule B4, the binding result is reported as “no binding”.

Take B5: the binding result is given as “no binding”.

The values above are taken from patent publication US20210388081A1 (Memorial Sloan Kettering, published 2021).
